Data taken from paper PMC10681739, “High-throughput data and modeling reveal insights into the mechanisms of cooperative DNA-binding by transcription factor proteins”.

Biological target: RUNX1 (Homo sapiens, UniProt Q01196)
Test: gcPBM; 2 nM RUNX1
Conditions: tags: N-terminal GST (pDEST15), kept (PMC6008103); label: surface-attached array probe

RUNX1, sequence (Q01196 whole entry): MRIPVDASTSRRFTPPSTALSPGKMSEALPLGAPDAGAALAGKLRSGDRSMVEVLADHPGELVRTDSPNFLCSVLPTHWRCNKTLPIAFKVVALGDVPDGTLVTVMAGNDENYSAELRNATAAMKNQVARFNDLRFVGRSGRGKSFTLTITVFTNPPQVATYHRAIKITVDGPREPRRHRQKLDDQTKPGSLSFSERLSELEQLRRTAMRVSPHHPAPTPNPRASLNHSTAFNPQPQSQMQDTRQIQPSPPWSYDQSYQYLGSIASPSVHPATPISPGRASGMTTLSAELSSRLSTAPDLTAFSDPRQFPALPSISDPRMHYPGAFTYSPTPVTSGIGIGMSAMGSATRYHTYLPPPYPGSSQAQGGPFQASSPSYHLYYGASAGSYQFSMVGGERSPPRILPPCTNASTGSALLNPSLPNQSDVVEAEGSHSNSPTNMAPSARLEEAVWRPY

Row | Binder | binding signal
1 | Table S3 B row 244 (dsDNA) DNA 1: GGTCTTTTCTGTGGTTCTGTCACCTCCTTTGTAAGT DNA 2: ACTTACAAAGGAGGTGACAGAACCACAGAAAAGACC | 2300 PBM fluorescence, median of replicate spots
2 | Table S3 B row 2767 (dsDNA) DNA 1: CTTGCGGTCCCATCTTGCTTTTTTCTTGCGCTTTCC DNA 2: GGAAAGCGCAAGAAAAAAGCAAGATGGGACCGCAAG | 2370 PBM fluorescence, median of replicate spots
3 | Table S3 B row 2615 (dsDNA) DNA 1: ACCCCCCAACCACAAGGCCCGTTTGCTGCCTCCCCA DNA 2: TGGGGAGGCAGCAAACGGGCCTTGTGGTTGGGGGGT | 2690 PBM fluorescence, median of replicate spots
4 | Table S3 B row 2151 (dsDNA) DNA 1: CTAAGGCTGTGGTTTGTACCCTAGCAGCAAAGGCAG DNA 2: CTGCCTTTGCTGCTAGGGTACAAACCACAGCCTTAG | 2080 PBM fluorescence, median of replicate spots
5 | Table S3 B row 905 (dsDNA) DNA 1: CCTCTGCGGTCTCTGCAGCCGTTTGCATTTGCTGAA DNA 2: TTCAGCAAATGCAAACGGCTGCAGAGACCGCAGAGG | 4320 PBM fluorescence, median of replicate spots
6 | Table S3 B row 808 (dsDNA) DNA 1: TGTGTTAGTGGTTTTCTCTTACGGCAGGCAGTGGGC DNA 2: GCCCACTGCCTGCCGTAAGAGAAAACCACTAACACA | 2040 PBM fluorescence, median of replicate spots
7 | Table S3 B row 3999 (dsDNA) DNA 1: ATGGAAATGTGGTTAAGAACTCCCTCTTTTACTAGA DNA 2: TCTAGTAAAAGAGGGAGTTCTTAACCACATTTCCAT | 2760 PBM fluorescence, median of replicate spots
8 | Table S3 B row 4026 (dsDNA) DNA 1: CCTCCTGTGGTTAGTTCCTGCCCGATCAGGCAGGAG DNA 2: CTCCTGCCTGATCGGGCAGGAACTAACCACAGGAGG | 4260 PBM fluorescence, median of replicate spots
9 | Table S3 B row 1934 (dsDNA) DNA 1: TCCTCCCCCAACCGCACCCTCAGCTTCATGTTTCAG DNA 2: CTGAAACATGAAGCTGAGGGTGCGGTTGGGGGAGGA | 3950 PBM fluorescence, median of replicate spots
10 | Table S3 B row 3109 (dsDNA) DNA 1: ACTCCACCTACCCACAAAACGCACTGCCTCAGAAGC DNA 2: GCTTCTGAGGCAGTGCGTTTTGTGGGTAGGTGGAGT | 2010 PBM fluorescence, median of replicate spots
11 | Table S3 B row 1984 (dsDNA) DNA 1: TAAAACCAAACCACAGATGACACATTGCCTTTCCAC DNA 2: GTGGAAAGGCAATGTGTCATCTGTGGTTTGGTTTTA | 2350 PBM fluorescence, median of replicate spots
12 | Table S3 B row 3962 (dsDNA) DNA 1: GCCCCTCTGCGGTCGCAGCCCCGCCGGGAGTGTGGC DNA 2: GCCACACTCCCGGCGGGGCTGCGACCGCAGAGGGGC | 4660 PBM fluorescence, median of replicate spots
13 | Table S3 B row 232 (dsDNA) DNA 1: TGTTGTGTGGTTTCAGAGATACGTCCTTGGGTTGCC DNA 2: GGCAACCCAAGGACGTATCTCTGAAACCACACAACA | 1750 PBM fluorescence, median of replicate spots
14 | Table S3 B row 1215 (dsDNA) DNA 1: ACAGAGAAACCACAGCCCTGAGCCTCTTCATGACAT DNA 2: ATGTCATGAAGAGGCTCAGGGCTGTGGTTTCTCTGT | 4430 PBM fluorescence, median of replicate spots
15 | Table S3 B row 75 (dsDNA) DNA 1: GCGTCCTTTGCGGTCTTTTGTCCACGTTCGGGTCAA DNA 2: TTGACCCGAACGTGGACAAAAGACCGCAAAGGACGC | 4170 PBM fluorescence, median of replicate spots
16 | Table S3 B row 2861 (dsDNA) DNA 1: ACGATCCAACCGCATTCACCCCGTAAGCCGCTTCCA DNA 2: TGGAAGCGGCTTACGGGGTGAATGCGGTTGGATCGT | 4500 PBM fluorescence, median of replicate spots
17 | Table S3 B row 736 (dsDNA) DNA 1: CTCTGAACCGCATGATCTCTAAGACCACTTGCTGTT DNA 2: AACAGCAAGTGGTCTTAGAGATCATGCGGTTCAGAG | 1820 PBM fluorescence, median of replicate spots
18 | Table S3 B row 1562 (dsDNA) DNA 1: CCACACCCACAAGGCCAGCCTCAATTCCTCACTCCT DNA 2: AGGAGTGAGGAATTGAGGCTGGCCTTGTGGGTGTGG | 1900 PBM fluorescence, median of replicate spots
19 | Table S3 B row 1118 (dsDNA) DNA 1: CTCCCACCATCCACCGCAGCCACTTTCGCCCGTCCT DNA 2: AGGACGGGCGAAAGTGGCTGCGGTGGATGGTGGGAG | 3290 PBM fluorescence, median of replicate spots
20 | Table S3 B row 1078 (dsDNA) DNA 1: ATTTGTCACCAAACCACAGAGAGGACATGATTGTAA DNA 2: TTACAATCATGTCCTCTCTGTGGTTTGGTGACAAAT | 1740 PBM fluorescence, median of replicate spots
21 | Table S3 B row 1232 (dsDNA) DNA 1: CTCCTCTGTGGTCAGCCATCAATTCATCCCAGCCCG DNA 2: CGGGCTGGGATGAATTGATGGCTGACCACAGAGGAG | 4200 PBM fluorescence, median of replicate spots
22 | Table S3 B row 1484 (dsDNA) DNA 1: GTGAAGACCGCAAGTTGGGGCAGATGGCTCCCGACT DNA 2: AGTCGGGAGCCATCTGCCCCAACTTGCGGTCTTCAC | 3440 PBM fluorescence, median of replicate spots
23 | Table S3 B row 991 (dsDNA) DNA 1: TCCCTTACCTTCATGCTGCCACCAAACCACCAAACC DNA 2: GGTTTGGTGGTTTGGTGGCAGCATGAAGGTAAGGGA | 2540 PBM fluorescence, median of replicate spots

Row | Binder | binding signal
24 | Table S3 B row 2568 (dsDNA) DNA 1: GTCGCCTGCGGTGACTCAGCTCTTACGGTCACCGCC DNA 2: GGCGGTGACCGTAAGAGCTGAGTCACCGCAGGCGAC | 1800 PBM fluorescence, median of replicate spots
25 | Table S3 B row 1201 (dsDNA) DNA 1: GTGGGCTGTGGTTAGGAGACATGAAGGAGAATGCCA DNA 2: TGGCATTCTCCTTCATGTCTCCTAACCACAGCCCAC | 4150 PBM fluorescence, median of replicate spots
26 | Table S3 B row 2476 (dsDNA) DNA 1: CAGGTCACCGCAGTCCCCACCACTGCCTGTTATTGT DNA 2: ACAATAACAGGCAGTGGTGGGGACTGCGGTGACCTG | 1870 PBM fluorescence, median of replicate spots
27 | Table S3 B row 2863 (dsDNA) DNA 1: CCGCCCTGTGGTTTTGGAGCCCTTGCTCCCGGCGCA DNA 2: TGCGCCGGGAGCAAGGGCTCCAAAACCACAGGGCGG | 4640 PBM fluorescence, median of replicate spots
28 | Table S3 B row 3800 (dsDNA) DNA 1: GACCCAGATACCACACCTACCCTGCTGCCTTTTCTA DNA 2: TAGAAAAGGCAGCAGGGTAGGTGTGGTATCTGGGTC | 1960 PBM fluorescence, median of replicate spots
29 | Table S3 B row 708 (dsDNA) DNA 1: CTCCTGCGGTTGCCAGGCAACCGGCCCCGGGAGTTG DNA 2: CAACTCCCGGGGCCGGTTGCCTGGCAACCGCAGGAG | 3720 PBM fluorescence, median of replicate spots
30 | Table S3 B row 1841 (dsDNA) DNA 1: CTGCCCATCGCGGTTAACTTTTGCGCCTCCTTAAAG DNA 2: CTTTAAGGAGGCGCAAAAGTTAACCGCGATGGGCAG | 3570 PBM fluorescence, median of replicate spots
31 | Table S3 B row 2632 (dsDNA) DNA 1: TCTGTTTTGTGGGTTCCCTGCCCCCCTTCGGCCTTT DNA 2: AAAGGCCGAAGGGGGGCAGGGAACCCACAAAACAGA | 2250 PBM fluorescence, median of replicate spots
32 | Table S3 B row 2682 (dsDNA) DNA 1: TGGAAACCACAAGTTATTCCCTGCAAGCCGTAAGCA DNA 2: TGCTTACGGCTTGCAGGGAATAACTTGTGGTTTCCA | 4300 PBM fluorescence, median of replicate spots
33 | Table S3 B row 2775 (dsDNA) DNA 1: CCTGTTTCGTGCCATCTGCCCTTCCTTTGTGGTCAA DNA 2: TTGACCACAAAGGAAGGGCAGATGGCACGAAACAGG | 2610 PBM fluorescence, median of replicate spots
34 | Table S3 B row 1822 (dsDNA) DNA 1: TCCTATTTTTACCGCAGTTGCACAGGCAATGAGGCG DNA 2: CGCCTCATTGCCTGTGCAACTGCGGTAAAAATAGGA | 3180 PBM fluorescence, median of replicate spots
35 | Table S3 B row 3020 (dsDNA) DNA 1: TTTTATCGTCCGCGAGCCCTCATCCCACAACTCTTC DNA 2: GAAGAGTTGTGGGATGAGGGCTCGCGGACGATAAAA | 1790 PBM fluorescence, median of replicate spots
36 | Table S3 B row 1676 (dsDNA) DNA 1: GTAAAATGCGGTCGGGTAGAAACCTACTTTCGGTCC DNA 2: GGACCGAAAGTAGGTTTCTACCCGACCGCATTTTAC | 2480 PBM fluorescence, median of replicate spots
37 | Table S3 B row 3703 (dsDNA) DNA 1: GGAACACTGCGGTCGGGGCGAGGGAGCTGCCGGGGA DNA 2: TCCCCGGCAGCTCCCTCGCCCCGACCGCAGTGTTCC | 4100 PBM fluorescence, median of replicate spots
38 | Table S3 B row 1939 (dsDNA) DNA 1: TTGGTTCTGTGGTTTCAGGTGTGAGTTCCAGTGTGC DNA 2: GCACACTGGAACTCACACCTGAAACCACAGAACCAA | 2910 PBM fluorescence, median of replicate spots
39 | Table S3 B row 2668 (dsDNA) DNA 1: TACAGTCTCTGTGGTTTACTGAGAGGAGGTGGTTCT DNA 2: AGAACCACCTCCTCTCAGTAAACCACAGAGACTGTA | 2160 PBM fluorescence, median of replicate spots
40 | Table S3 B row 2319 (dsDNA) DNA 1: CCCCGGCAGAAACCGCACCCCACTCCCCATAGCCAC DNA 2: GTGGCTATGGGGAGTGGGGTGCGGTTTCTGCCGGGG | 4670 PBM fluorescence, median of replicate spots
41 | Table S3 B row 878 (dsDNA) DNA 1: CCCTTTGTGGTCACAAAAACATGTCCTAGTTGAGAT DNA 2: ATCTCAACTAGGACATGTTTTTGTGACCACAAAGGG | 3830 PBM fluorescence, median of replicate spots
42 | Table S3 B row 1521 (dsDNA) DNA 1: CTCCGCCTTTCACCTCCTAGTAACCGCCCTCCCTTG DNA 2: CAAGGGAGGGCGGTTACTAGGAGGTGAAAGGCGGAG | 2240 PBM fluorescence, median of replicate spots
43 | Table S3 B row 2805 (dsDNA) DNA 1: AGCTTAATGCGGTTGGAGAACACCCTGTCTTATTGA DNA 2: TCAATAAGACAGGGTGTTCTCCAACCGCATTAAGCT | 1930 PBM fluorescence, median of replicate spots
44 | Table S3 B row 1266 (dsDNA) DNA 1: AGAAAACCACATTCAATTCTCTTTACACAGGGTGTT DNA 2: AACACCCTGTGTAAAGAGAATTGAATGTGGTTTTCT | 3040 PBM fluorescence, median of replicate spots
45 | Table S3 B row 1286 (dsDNA) DNA 1: CCCAATTGCCTTTGCTCTGCTGTCTGCCAACCGCAA DNA 2: TTGCGGTTGGCAGACAGCAGAGCAAAGGCAATTGGG | 1860 PBM fluorescence, median of replicate spots
